{"source": "patent US11066455B2", "about": "“Tmem100 peptides and variants thereof and their use in treating or preventing diseases or conditions” (The Johns Hopkins University, priority 2014, dated 2021)", "molecules": {"B1": {"name": "Tmem100-3Q mutant (full-length, mouse) (protein)", "chain": "MTEESTKENLGAPKSPTPVTMEKNPKREVVVTTGPLVSEVQLMAATGGAELSCYRCIIPFAVVVFITGIVVTAVAYSFNSHGSIISIFGLVLLSSGLFLLASSALCWKVRQRNKKVQQQESQTALVVNQRCLFA"}, "B2": {"name": "Tmem100: 134-amino acid two-transmembrane protein, regulator of TRPA1 (SEQ ID NO: 1/2), expressed in cells (protein, listed as Homo sapiens, listed as Mus musculus)", "chain 1": "MTEEPIKEILGAPKAHMAATMEKSPKSEVVITTVPLVSEIQLMAATGGTELSCYRCIIPFAVVVFIAGIVVTAVAYSFNSHGSIISIFGLVVLSSGLFLLASSALCWKVRQRSKKAKRRESQTALVANQRSLFA", "chain 2": "B1 chain with Q117K, Q118R, Q119R"}}, "key": {"TRPA1": {"test_system": "T1, TRPA1", "T1 construct": "percentage of cells responsive to CA; other: shortened CPP 2 μM; CA 10 μM; HEK293 TRPA1+TRPV1; vs scrambled; percentage of cells responsive to MO; other: peptide 200 nM pre-treatment; 500 nM MO; HEK293T TRPA1+TRPV1; percentage of cells that respond to 100 nM MO and 10 μM CA; other: HEK293T TRPA1+TRPV1, Tmem100-3Q-transfected vs lacki; reduction in the percentage of cells responding to MO", "experiment": "Calcium imaging of HEK293T cells expressing TRPA1 and TRPV1 (MO or CA)", "type": "cell-based", "procedure": "Calcium imaging assays were performed as previously described (Liu et al., 2009). Cells were loaded with 2 μM fura 2-acetomethoxy ester (Molecular Probes) for 30 min in the dark at room temperature or for 45 minutes at 37° C. for DRG and cell lines, respectively. After washing, cells were imaged at 340 and 380 nm excitation to detect intracellular free calcium under a fluorescent microscope (Nikon Eclipse TE2000-S) and Lambda 10B shutter (Sutter Instrument). The cells were bathed in calcium imaging buffer (pH 7.45, 130 mM NaCl, 3 mM KCl, 2.5 mM CaCl2, 10 mM HEPES, 10 mM glucose, 1.2 mM NaHCO3, with sucrose to increase osmolarity to 290 mOsm). The reagents and buffers were applied through a gravity perfusion system at a rate of […], including mustard oil (Sigma 377430), cinnamaldehyde (Sigma C80687), menthol (Sigma M2780), and capsaicin (Sigma M2028). Cells with high baseline 340/380 values (>1.5) were excluded for analysis. For DRG neurons, IB4 staining was performed in the chamber with the dilution of 1:200 (Molecular Probes 121412) for 160 seconds before washing off at the end of each test. Images were processed and analyzed with NIS-Elements BR 2.30 software (Nikon). A responsive cell was defined as one that with greater than a 20% increase in the 340/380 ratio above the baseline. Intracellular calibration for calcium was performed as previously described (Akopian et al., 2007). The data was analyzed with the experimenter blinded to the genotypes or constructs transfected.\nDRG from 3 to 4-week old mice were collected in cold DH10 medium (90% DMEM/F-12, 10% FBS, 100 U/ml penicillin, and 100 μg/ml Streptomycin, Gibco) and treated with enzyme solution in HBSS containing collagenase (1.65 mg/mL, Worthington CLS I) and dispase (3.55 mg/mL, GIBCO 17105-041) at 37° C. for 30 minutes. After trituration and centrifugation, cells were resuspended in DH10, plated on glass coverslips coated with poly-D-lysine (0.5 mg/ml, Stoughton, Mass.) and laminin (10 μg/ml, Invitrogen), and cultured overnight in an incubator at 37° C. The neurons were tested within 24 hours. HEK293T, COS-7, and CHO cells were cultured in a medium consisting of 90% DMEM, 10% FBS, 100 U/mL penicillin, and 100 μg/ml Streptomycin. GlutaMAX (Gibco 35050-061) was also added for CHO cells. For calcium imaging, the cells were plated on glass coverslips coated with poly-D-lysine (0.5 mg/ml, Stoughton, Mass.). In the HEK cell studies the denominator is the cells expressing both TRPA1, TRPV1, and the designated constructs (i.e. Tmem100 or Tmem100-3Q mutant). mCherry:TRPV1:Tmem100 was transfected in 1:8:8 ratio into TRPA1 stable cell line (obtained from N. Tigue from GlaxoSmithKline) and used mCherry as the marker for the cells expressing the constructs 18 hours after transfection with Lipofectamine 2000. The transfection efficiency for Tmem100+TRPV1+TRPA1 triple-positive cells is 27±3%. This efficiency was determined by mCherry(+) divided by total number of cells in the bright fields.\nThe sequence from the last 28 amino acids of the C-terminus of the Tmem100-3Q mutant protein was synthesized and myristoylated at its N-terminus (myr-[…]-COOH) (SEQ ID NO: 8) by Twentyfirst Century Biochemicals. […] For the calcium imaging assay, the peptides were added to the calcium imaging buffer with a final concentration of 200 nM and incubated for at least […] at room temperature. For the mice behavioral assays, the peptides (5 μL, 2 mM) were injected subcutaneously in the hindpaw at least 30 minutes before testing. For the rat behavior assays, human T100-3Q (h-T100), a palmitoylated cell permeable peptide mutated based on the C terminus of human sequence in Tmem100, was applied. The sequence is Palmitoyl-[…]-COOH (SEQ ID NO: 7)."}, "TRPA1-V1 complex": {"test_system": "TRPA1-V1 complex", "experiment": "FRET with TIRF microscopy of TRPV1-CFP and TRPA1-YFP in COS-7 cells", "type": "cell-based", "settings": "compared to cells expressing only TRPA1-V1", "description": "Expression vectors of pEYFP-TRPA1 (YFP on C-terminal part), pECFP-TRPV1 (CFP on C-terminal part), and pEYFP-N1 were transfected into COS-7 cells with FuGENE HD (Promega E2311), as previously described (Staruschenko et al., 2010). COS-7 cells were chosen since they have flat morphology and thus suitable for TIRF-FRET analysis. Moreover, previously it has been shown that CHO and COS cells express TRPA1 and TRPV1 to the same level (Staruschenko et al., 2010). Data from fixed cells were collected in separate facilities at University of Texas Health Science Center, San Antonio, and the Johns Hopkins University, respectively. […] Briefly, two days after transfection, the cells were fixed for 15 min with 4% paraformaldehyde in PBS and then imaged at the room temperature using total internal reflection fluorescence (TIRF) (also called evanescent-field) microscopy on an inverted Nikon Eclipse TE200U microscope equipped with a plain Apo TIRF 60× oil-immersion, high-resolution (1.45 NA) objective. […] Fluorescence images were collected and processed with a 16-bit, cooled charge-coupled device camera (Cascade 512F; Roper Scientific Inc.) interfaced to a PC running Metamorph software.\nEach cell was photobleached by argon-ion laser (514 nm) at full power for 2 min. […] All images were analyzed in ImageJ. […]"}}, "note": "Substitutions are numbered along the chain they refer to. * marks the point of attachment. Myristoyl = CCCCCCCCCCCCCC(=O)*"}
{"molecule": "myr-QRVLEQVLQNWSRRANVKQAQKFQVKCT-COOH (Myristoyl-QRVLEQVLQNWSRRANVKQAQKFQVKCT-OH; SMILES CCCCCCCCCCCCCC(=O)N[C@@H](CCC(N)=O)C(=O)N[C@@H](CCCNC(=N)N)C(=O)N[C@H](C(=O)N[C@@H](CC(C)C)C(=O)N[C@@H](CCC(=O)O)C(=O)N[C@@H](CCC(N)=O)C(=O)N[C@H](C(=O)N[C@@H](CC(C)C)C(=O)N[C@@H](CCC(N)=O)C(=O)N[C@@H](CC(N)=O)C(=O)N[C@@H](Cc1c[nH]c2ccccc12)C(=O)N[C@@H](CO)C(=O)N[C@@H](CCCNC(=N)N)C(=O)N[C@@H](CCCNC(=N)N)C(=O)N[C@@H](C)C(=O)N[C@@H](CC(N)=O)C(=O)N[C@H](C(=O)N[C@@H](CCCCN)C(=O)N[C@@H](CCC(N)=O)C(=O)N[C@@H](C)C(=O)N[C@@H](CCC(N)=O)C(=O)N[C@@H](CCCCN)C(=O)N[C@@H](Cc1ccccc1)C(=O)N[C@@H](CCC(N)=O)C(=O)N[C@H](C(=O)N[C@@H](CCCCN)C(=O)N[C@@H](CS)C(=O)N[C@H](C(=O)O)[C@@H](C)O)C(C)C)C(C)C)C(C)C)C(C)C) [scrambled]", "values": [{"measurement": "percentage of cells responsive to MO", "setting": "TRPA1; peptide 200 nM pre-treatment, 500 nM MO, HEK293T TRPA1+TRPV1", "result": "18±2.8", "unit": "%"}]}
{"molecule": "B1", "values": [{"measurement": "enhancement of the TRPA1-TRPV1 interaction (FRET efficiency)", "setting": "TRPA1-V1 complex", "result": 43, "unit": "%"}, {"measurement": "percentage of cells that respond to 100 nM MO and 10 μM CA", "setting": "TRPA1; HEK293T TRPA1+TRPV1, Tmem100-3Q-transfected vs lacking Tmem100-3Q", "result": "significantly lower"}]}
{"molecule": "B2", "values": [{"measurement": "decrease of TRPA1-V1 FRET efficiency", "setting": "TRPA1-V1 complex", "result": 34, "unit": "%"}]}
